Source: patent US20210355185A1

Target: IL-12 receptors (human) (UniProt P42701)
Test: cell-based or functional assay

Chain of IL-12 receptors (human) (Q99665 24-862, chain 2 of 2, other chains not shown): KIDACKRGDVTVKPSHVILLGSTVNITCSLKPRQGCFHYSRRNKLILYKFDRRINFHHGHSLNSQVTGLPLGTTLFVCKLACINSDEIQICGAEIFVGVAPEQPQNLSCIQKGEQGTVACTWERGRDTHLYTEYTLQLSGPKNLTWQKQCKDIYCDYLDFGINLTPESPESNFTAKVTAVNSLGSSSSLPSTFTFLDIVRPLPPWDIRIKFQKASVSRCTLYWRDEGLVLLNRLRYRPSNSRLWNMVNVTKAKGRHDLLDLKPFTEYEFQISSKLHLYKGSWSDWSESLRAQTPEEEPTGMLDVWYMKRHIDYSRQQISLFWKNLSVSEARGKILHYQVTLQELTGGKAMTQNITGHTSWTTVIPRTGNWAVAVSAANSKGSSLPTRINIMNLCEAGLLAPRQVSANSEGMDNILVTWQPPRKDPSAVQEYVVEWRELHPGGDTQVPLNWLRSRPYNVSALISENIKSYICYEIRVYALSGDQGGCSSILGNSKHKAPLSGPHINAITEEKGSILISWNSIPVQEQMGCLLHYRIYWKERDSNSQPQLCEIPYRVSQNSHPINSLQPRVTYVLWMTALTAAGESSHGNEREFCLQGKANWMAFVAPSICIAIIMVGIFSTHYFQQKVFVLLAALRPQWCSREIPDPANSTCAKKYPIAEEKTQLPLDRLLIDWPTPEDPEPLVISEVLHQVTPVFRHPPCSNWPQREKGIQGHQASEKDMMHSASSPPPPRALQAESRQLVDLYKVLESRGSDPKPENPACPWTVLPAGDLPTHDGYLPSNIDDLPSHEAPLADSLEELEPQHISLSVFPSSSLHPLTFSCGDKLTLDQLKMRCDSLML

| Substance | reduction in potency (EC50 for STAT4 phosphorylation) relative to WT IL-12-Fc XENP27201 |
| --- | --- |
| IL-12-Fc fusion comprising IL-12p40(E235Q) (from UniProt P29460 23-328; P29459 23-219) | > 2 fold |
| IL-12-Fc fusion comprising IL-12p35(D55Q/N151D) (from UniProt P29460 23-328; P29459 23-219) | 2 fold |
| IL-12-Fc fusion comprising IL-12p35(E153Q) (from UniProt P29460 23-328; P29459 23-219) | > 2 fold |
